The text below walks through data of the supplement of paper PMC10126150.

± gives the standard deviation of the averaged measurements.

This data set has as its system ATP. In words: switch fluorescence ratio, 500 uM ATP over buffer (Cy3 cluster intensity, sum of 5 cycles each) (fold (ratio)); higher = stronger signal-on switching upon ATP binding; sequences stand for … in TCGTCGGCAGCGTCAGATGTGTATAAGAGACAGTTTTTTTTTTTTTTTTTTTTTTTTT…TC. Conditions: aptamer strand: ATP DNA aptamer (quencher-CACCTGGGGGAGTATTGCGGAGGAAGG + anchor), 100 nM annealed; ATP concentration: 500 uM. The method in brief: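 The quencher-labelled ATP aptamer, at 100 nM, was annealed to Cy3-labelled switching-strand clusters on a modified Illumina MiSeq flow-cell. The clusters were imaged in selection buffer, then after 15 min with 500 uM ATP at 22 °C, and this buffer/ATP cycle ran five times with NaOH stripping and re-annealing between runs. Per-cluster fluorescence ratios, summed target-cycle over summed buffer-cycle Cy3 intensity, were averaged per switch-domain sequence. Clusters outside 100-1000 RFU were excluded.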
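Also: ATP exposure 15 min at 22 °C before imaging.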

Take ACAAAACATG: the switch fluorescence ratio was 1.16 ± 0.15.

On to GTGCTTCTTT, for which the switch fluorescence ratio came out at 0.99 ± 0.011.

Consider CACGTATCTC, for which the switch fluorescence ratio stood at 1.2 ± 0.05.

Regarding CCATGAGTGT, the switch fluorescence ratio was determined as 0.997 ± 0.032.

For the sequence CTAGGAAGGT, the switch fluorescence ratio amounted to 1.01 ± 0.033.

For CCTAATGAA, the switch fluorescence ratio was 1.2 ± 0.28.

Regarding TATAAAAGAC, the switch fluorescence ratio was 1.018 ± 0.01.

As for GGTTTACTTC, the switch fluorescence ratio turned out to be 0.9967 ± 0.0016.

Regarding AGTGTACCCA, the switch fluorescence ratio was found to be 1.077 ± 0.01.

For TTGGGAGTTG, the switch fluorescence ratio was 0.984 ± 0.037.

As to TGGATTTGTC, the switch fluorescence ratio worked out at 0.99 ± 0.024.

On to TGACATTATA, for which the switch fluorescence ratio is 1.01 ± 0.032.

Take TATTATGTAT: the switch fluorescence ratio stood at 0.982 ± 0.031.

Regarding TAGGGTATG, the switch fluorescence ratio was 0.983 ± 0.053.

On to GATTGTATGG, for which the switch fluorescence ratio was found to be 1.02 ± 0.025.

For the sequence GCGCGAAGGA, the switch fluorescence ratio stood at 1.03 ± 0.053.

Turning to GGGGATACGT, the switch fluorescence ratio was 1 ± 0.021.

For the sequence GGGGCAACGT, the switch fluorescence ratio was found to be 0.983 ± 0.012.

For the sequence TGATAGAGCC, the switch fluorescence ratio stood at 1.01 ± 0.023.

Consider TTGATCTTGG, for which the switch fluorescence ratio was 1.04 ± 0.013.

Turning to GGCCTGGGCT, the switch fluorescence ratio was 1.02 ± 0.061.

On to TCGGGTCATG, for which the switch fluorescence ratio came to 1.04 ± 0.04.

In the case of TAAGCAGTTA, the switch fluorescence ratio turned out to be 1.08 ± 0.12.

For GGATGTGTAA, the switch fluorescence ratio worked out at 1.007 ± 0.007.

In the case of TGCTCTTAGT, the switch fluorescence ratio was 1.04 ± 0.079.

Consider TTGCCGCAGC, for which the switch fluorescence ratio worked out at 1.49 ± 0.054.

Consider TATCACATTT, for which the switch fluorescence ratio came out at 1.02 ± 0.018.

In the case of GAGTTTTGAA, the switch fluorescence ratio was 0.997 ± 0.018.

As to GCCGCTGGTG, the switch fluorescence ratio is 1.22 ± 0.077.

Turning to TTCGCAACGG, the switch fluorescence ratio stood at 1.22 ± 0.34.

In the case of ACGGTCCAGG, the switch fluorescence ratio is 3 ± 0.5.

In the case of CTTAAAGGCC, the switch fluorescence ratio was 0.984 ± 0.026.

ATTTGAGAGC: the switch fluorescence ratio came out at 0.987 ± 0.017.

Regarding ATTTTTAACT, the switch fluorescence ratio came out at 0.99578 ± 0.00077.

Turning to TGGTATTGCA, the switch fluorescence ratio came out at 0.999 ± 0.028.

With TTTGAGGGTT, the switch fluorescence ratio came to 0.983 ± 0.026.

Regarding TTTGCACTGT, the switch fluorescence ratio amounted to 0.998 ± 0.055.

For AAAGTTGGAT, the switch fluorescence ratio is 0.977 ± 0.012.

Regarding ATGGGCGTTG, the switch fluorescence ratio came to 0.9658 ± 0.0037.

Regarding TTTTGATTTA, the switch fluorescence ratio is 1 ± 0.053.

Regarding ATGTTACGTT, the switch fluorescence ratio turned out to be 1.02 ± 0.021.

As for GCTCCTAAAA, the switch fluorescence ratio was determined as 1.1039 ± 0.00034.

For TGTTGTGGTC, the switch fluorescence ratio is 0.9804 ± 0.0042.

With AGCCCGCGCA, the switch fluorescence ratio amounted to 1.03 ± 0.028.

Turning to ACGATACTTT, the switch fluorescence ratio was 1.37 ± 0.015.

As to TTGTTACGGA, the switch fluorescence ratio worked out at 1.01 ± 0.017.

Take TTTTACAAAA: the switch fluorescence ratio was determined as 0.981 ± 0.02.

Consider GAGAGGGTAC, for which the switch fluorescence ratio turned out to be 1.03 ± 0.063.

Regarding TAATCCTTTG, the switch fluorescence ratio stood at 1.01 ± 0.048.

In the case of TGATGTAGCA, the switch fluorescence ratio turned out to be 0.979 ± 0.033.

For GTATTAGCAG, the switch fluorescence ratio worked out at 1.03 ± 0.026.

Take TTGGGCTTGC: the switch fluorescence ratio amounted to 1.04 ± 0.029.

Turning to CTTGTAAGGT, the switch fluorescence ratio worked out at 0.976 ± 0.022.

With GTGGTATCCG, the switch fluorescence ratio worked out at 0.973 ± 0.058.

As for CAAGGGTCCG, the switch fluorescence ratio was found to be 0.991 ± 0.045.

In the case of ATTTTTAGGG, the switch fluorescence ratio is 1.02 ± 0.033.

For GGGCGCAAGG, the switch fluorescence ratio is 1.02 ± 0.029.

In the case of TTCGATTGTG, the switch fluorescence ratio turned out to be 0.9867 ± 0.0088.

Consider CGGATATGGA, for which the switch fluorescence ratio is 0.988 ± 0.058.

As to TATTTTACAG, the switch fluorescence ratio turned out to be 1.02 ± 0.02.

With ACGTAATTGG, the switch fluorescence ratio is 1.21 ± 0.01.

ATGATTAGCT: the switch fluorescence ratio was 1.0032 ± 0.00021.

For AGGGGGTAGC, the switch fluorescence ratio was determined as 0.992 ± 0.047.

ATTTGGGAAG: the switch fluorescence ratio stood at 1.01 ± 0.021.

As to AAGAAAGTCG, the switch fluorescence ratio came to 0.9998 ± 0.0052.

On to AGCTTCTTAT, for which the switch fluorescence ratio was determined as 1.03 ± 0.028.

Consider TCGGGTGAAC, for which the switch fluorescence ratio worked out at 0.983 ± 0.041.

Turning to TTACCCTTAG, the switch fluorescence ratio worked out at 1.06 ± 0.028.

As to ATAATCTGTG, the switch fluorescence ratio was determined as 0.986 ± 0.0023.

As to ACAGTAACTT, the switch fluorescence ratio stood at 1.092 ± 0.0098.

As for AGGTACGCTC, the switch fluorescence ratio amounted to 0.99314 ± 0.00048.

Consider ATGGGGTGCT, for which the switch fluorescence ratio turned out to be 0.986 ± 0.035.

Take AGTAAGGCTC: the switch fluorescence ratio was 1.14 ± 0.061.

With AGATGAATGT, the switch fluorescence ratio was found to be 0.987 ± 0.015.

With AGAGTTAAAA, the switch fluorescence ratio was found to be 1.04 ± 0.0077.

With ACGGTGATGG, the switch fluorescence ratio amounted to 1.018 ± 0.0071.

On to AAAAAGTCGC, for which the switch fluorescence ratio worked out at 0.961 ± 0.022.

Regarding GTGGACTAGT, the switch fluorescence ratio was determined as 1.02 ± 0.026.

Regarding TCCGCTTGTA, the switch fluorescence ratio stood at 1.39 ± 0.11.

As to ACGCGGGTAA, the switch fluorescence ratio turned out to be 1.023 ± 0.0095.

For the sequence GCAGCTAGTA, the switch fluorescence ratio is 1.044 ± 0.0045.

Take GACAGATATG: the switch fluorescence ratio turned out to be 0.979 ± 0.081.

Turning to ACCAGAGGTA, the switch fluorescence ratio worked out at 1.01 ± 0.014.

In the case of GTCAGCTTGC, the switch fluorescence ratio was determined as 1 ± 0.025.

Take CCAAAACAGC: the switch fluorescence ratio was found to be 1.028 ± 0.0022.

Turning to TGCTATCATC, the switch fluorescence ratio amounted to 0.989 ± 0.02.

Take TTTTGATCAA: the switch fluorescence ratio was found to be 1.01 ± 0.02.

In the case of CCAACGGGCA, the switch fluorescence ratio was 1.08 ± 0.031.

With TATAGGGAAA, the switch fluorescence ratio stood at 1.09 ± 0.11.

For the sequence CGGGAACGGA, the switch fluorescence ratio came to 0.984 ± 0.033.

For the sequence GAGGGGCCTA, the switch fluorescence ratio is 0.968 ± 0.021.

Take TACAAGATGT: the switch fluorescence ratio is 1.01 ± 0.029.

On to TTTGGCGAAC, for which the switch fluorescence ratio stood at 1.02 ± 0.02.

As for AAACGGGCGG, the switch fluorescence ratio was found to be 0.996 ± 0.045.

As for TGGCCTCATC, the switch fluorescence ratio is 1.02 ± 0.058.

Regarding GCTTTAGAGA, the switch fluorescence ratio was determined as 0.985 ± 0.019.

TTAGTATTCT: the switch fluorescence ratio was determined as 0.992 ± 0.031.

With ATGGGTTGGG, the switch fluorescence ratio was 0.991 ± 0.017.

With CGGCGGGCTG, the switch fluorescence ratio came to 0.989 ± 0.062.

Regarding CAGGTAGTTG, the switch fluorescence ratio came out at 1.004 ± 0.0032.

TACGGGAATG: the switch fluorescence ratio came out at 1.02 ± 0.036.

On to TGCGGGGAGA, for which the switch fluorescence ratio stood at 1.02 ± 0.024.

For the sequence GGAGGGGCAA, the switch fluorescence ratio is 1.24 ± 0.032.

Turning to TTGAGGCCGG, the switch fluorescence ratio came out at 1.038 ± 0.0038.

As to ACCGATGCAC, the switch fluorescence ratio came out at 4.12 ± 1.2.

For TTTTTGGGTA, the switch fluorescence ratio is 0.973 ± 0.027.

As to TGTCTATAGT, the switch fluorescence ratio stood at 0.986 ± 0.036.

As to TTTCGATGTT, the switch fluorescence ratio worked out at 0.95 ± 0.051.

Take CTGGGAGGTT: the switch fluorescence ratio came to 0.97 ± 0.05.

Turning to TTTTGCATTA, the switch fluorescence ratio is 1.33 ± 0.5.

For GAGTAGGCGC, the switch fluorescence ratio was found to be 0.955 ± 0.032.

As to AGGATGTTAT, the switch fluorescence ratio is 1 ± 0.016.

As to ACACCTAGGC, the switch fluorescence ratio turned out to be 1.12 ± 0.054.

With GAGACGCTTT, the switch fluorescence ratio amounted to 1.04 ± 0.049.

Consider GGGGACGTAC, for which the switch fluorescence ratio amounted to 1.47 ± 0.22.

On to TTGGGGGCTT, for which the switch fluorescence ratio came to 1 ± 0.039.

With ATATTAGGGT, the switch fluorescence ratio was 1.01 ± 0.042.

Turning to AGCTGATACG, the switch fluorescence ratio was 1.31 ± 0.0078.

For the sequence TTTTGTATGG, the switch fluorescence ratio was found to be 0.9893 ± 0.0079.

As for AGCTTGCTAT, the switch fluorescence ratio was 0.97 ± 0.011.
